According to patent US20220290167:

Target: T1, recombinant B. taurus beta casein with HA tag, 6 histidine tag and HDEL peptide, produced by pMOZ702 in N. benthamiana leaf
T1 chain: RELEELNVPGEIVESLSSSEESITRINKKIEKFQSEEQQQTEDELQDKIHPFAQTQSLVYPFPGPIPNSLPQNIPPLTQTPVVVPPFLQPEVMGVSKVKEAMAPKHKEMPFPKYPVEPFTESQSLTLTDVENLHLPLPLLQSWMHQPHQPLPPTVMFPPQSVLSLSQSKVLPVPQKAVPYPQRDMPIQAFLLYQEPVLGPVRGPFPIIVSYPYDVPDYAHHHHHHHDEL

B1: recombinant H. sapiens Fam20A expressed from pMOZ12 (protein)
chain: QLRPRERPRGCPCTGRASSLARDSAAAASDPGTIVHNFSRTEPRTEPAGGSHSGSSSKLQALFAHPLYNVPEEPPLLGAEDSLLASQEALRYYRRKVARWNRRHKMYREQMNLTSLDPPLQLRLEASWVQFHLGINRHGLYSRSSPVVSKLLQDMRHFPTISADYSQDEKALLGACDCTQIVKPSGVHLKLVLRFSDFGKAMFKPMRQQRDEETPVDFFYFIDFQRHNAEIAAFHLDRILDFRRVPPTVGRIVNVTKEILEVTKNEILQSVFFVSPASNVCFFAKCPYMCKTEYAVCGNPHLLEGSLSAFLPSLNLAPRLSVPNPWIRSYTLAGKEEWEVNPLYCDTVKQIYPYNNSQRLLNVIDMAIFDFLIGNMDRHHYEMFTKFGDDGFLIHLDNARGFGRHSHDEISILSPLSQCCMIKKKTLLHLQLLAQADYRLSDVMRESLLEDQLSPVLTEPHLLALDRRLQTILRTVEGCIVAHGQQSVIVDGPVEQLAPDSGQANLTSHDEL
  Western blot band migration of beta casein; HsFam20A coexpressed together with HsFam20C in tobacco leaf (FIG. 19, lanes 3 and 4): In lanes containing beta casein coexpressed with the human kinases the bands are shifted upward on the gel relative to the sample transformed with only beta casein
  Western blot band migration of beta casein; HsFam20A coexpressed together with HsFam20C in tobacco leaf (FIG. 20, lane 8, '2 human kinases'): In lanes containing beta casein coexpressed with 1 human kinase, 2 human kinases, 1 bovine kinase or 2 bovine kinases the bands are shifted upward on the gel relative to the sample transformed with only beta casein

B2: recombinant B. taurus Fam20A expressed from pMOZ15 (protein)
chain: MHVSSHLGPRVRSRLQPRERPLGCPCARRAASPAPGPAPSAPRRVEPSGGGDPGSKLRALFAHPLYNEPEEPPLLGPEDSLLAGPEALRYYRRKVARWNRRRKMYKEQLNLTSPEPPVQLRQEASWVQFHLGINRHGLYPRSSPVVSKLLQDMRHFPTISADYSQDEKALLGACDCSQIVKPSGVHLKLVLRFSDFGKAMFKPMRQQRDEETPEDFFYFIDFQRHNAEIAAFHLDRILDFRRVPPTVGRLVNVTREILEVTRNEILQSVFFVSPANNVCFFAKCPYMCKTEYAVCGSPHLLEGSLSAFLPSLNLAPRFSMPSPWIRSYSLAGREEWEVNPLYCEAVKQAYPHNSSSRLLNIIDMAIFDFLIGNMDRHHYEMFTKFGEDGFLIHLDNARGFGRHSHDEVSILAPLFQCCRIKRKTLLHLQLLAQADYRLSDVMRESLLEDQLSPVLTEPHLLALDRRLQTVLRTVQDCIEAHGEQSVVADGPVGQWAPDSSRANATSHDEL
  Western blot band migration of beta casein; BtFam20A coexpressed together with BtFam20C in tobacco leaf (FIG. 20, lane 7, '2 bovine kinases'): In lanes containing beta casein coexpressed with 1 human kinase, 2 human kinases, 1 bovine kinase or 2 bovine kinases the bands are shifted upward on the gel relative to the sample transformed with only beta casein

B3: recombinant B. taurus Fam20C expressed from pMOZ14 (protein)
chain: MLLPKLERSAARPSGEPGCSCAQPAAEAAAPGWAQARGHPGGELEAAASAAGDAGWPNKHTLRILQDFSSDPSSNLTSHSLEKLPPAAEAAEGAPPGQDPGVRRPPDPAHRPLPRDPGPRGPVLPPGLSGDGSLLTRLFQHPLYQVPIPPLTEGDVLFNVNSDIRFNPKAATAENPDWPHEGPEDEFLPTGEAAVDSYPNWLKFHIGINRYELYSRHNPAVGALLQDLGTQKITSVAMKSGGTQLKLIMTFQNYGQALFKPMKQTREQETPPDFFYFSDYERHNAEIAAFHLDRILDFRRVPPVAGRLVNMTKEIRDVTRDKKLWRTFFISPANNVCFYGECSYYCSTEHALCGKPDQIEGSLAAFLPDLALAKRKTWRNPWRRSYHKRKKAEWEVDPDYCEEVRQTPPYDSSHRLLDVMDMTIFDFLMGNMDRHHYETFEKFGNETFIIHLDNGRGFGKHSHDELSILVPLQQCCRIRRSTYLRLQLLAQEEHRLSLLMAEALRADRVAPVLFQPHLEALDRRLRIVLRAVGDCVEKDGLHSVVEDDLGPEHRAAAGRHDEL
  Western blot band migration of beta casein; BtFam20C coexpressed together with BtFam20A in tobacco leaf (FIG. 20, lane 7, '2 bovine kinases'): In lanes containing beta casein coexpressed with 1 human kinase, 2 human kinases, 1 bovine kinase or 2 bovine kinases the bands are shifted upward on the gel relative to the sample transformed with only beta casein

B4: recombinant H. sapiens Fam20C expressed from pMOZ11 (protein)
chain: LDLLPRLERRGARPSGEPGCSCAQPAAEVAAPGWAQVRGRPGEPPAASSAAGDAGWPNKHTLRILQDFSSDPSSNLSSHSLEKLPPAAEPAERALRGRDPGALRPHDPAHRPLLRDPGPRRSESPPGPGGDASLLARLFEHPLYRVAVPPLTEEDVLFNVNSDTRLSPKAAENPDWPHAGAEGAEFLSPGEAAVDSYPNWLKFHIGINRYELYSRHNPAIEALLHDLSSQRITSVAMKSGGTQLKLIMTFQNYGQALFKPMKQTREQETPPDFFYFSDYERHNAEIAAFHLDRILDFRRVPPVAGRMVNMTKEIRDVTRDKKLWRTFFISPANNICFYGECSYYCSTEHALCGKPDQIEGSLAAFLPDLSLAKRKTWRNPWRRSYHKRKKAEWEVDPDYCEEVKQTPPYDSSHRILDVMDMTIFDFLMGNMDRHHYETFEKFGNETFIIHLDNGRGFGKYSHDELSILVPLQQCCRIRKSTYLRLQLLAKEEYKLSLLMAESLRGDQVAPVLYQPHLEALDRRLRVVLKAVRDCVERNGLHSVVDDDLDTEHRAASARHDEL
  Western blot band migration of beta casein; HsFam20C alone coexpressed in tobacco leaf (FIG. 20, lane 5, '1 human kinase'): In lanes containing beta casein coexpressed with 1 human kinase, 2 human kinases, 1 bovine kinase or 2 bovine kinases the bands are shifted upward on the gel relative to the sample transformed with only beta casein
  Western blot band migration of beta casein; HsFam20C coexpressed together with HsFam20A in tobacco leaf (FIG. 19, lanes 3 and 4): In lanes containing beta casein coexpressed with the human kinases the bands are shifted upward on the gel relative to the sample transformed with only beta casein
  Western blot band migration of beta casein; HsFam20C coexpressed together with HsFam20A in tobacco leaf (FIG. 20, lane 8, '2 human kinases'): In lanes containing beta casein coexpressed with 1 human kinase, 2 human kinases, 1 bovine kinase or 2 bovine kinases the bands are shifted upward on the gel relative to the sample transformed with only beta casein
